What was measured:
[1] = test system: MEK; details: cited from earlier work
[2] = test system: NIH3T3 cells; assay: G418-resistant colony formation (cell proliferation) in NIH3T3 cells; type: cell-based, mouse
[3] = test system: NIH3T3 cells; assay: Transformed foci formation (cell transformation) in NIH3T3 cells; type: cell-based, mouse; details: for Inhibition of cell transformation rates: H-RasV12 transformed cells; for Inhibition of cell transformation (foci formation): transformation by H-ras V12 or v-Src, constructs 1 μg each, FIG. 20
Method: Transformed foci formation was assayed in NIH3T3 cells transfected with H-ras V12 or v-Src (0.25 ng) plus constructs (1 μg each).
Additionally, experiments where inhibition of ERK signaling using ERK ligands of the invention was compared to siRNAs and a small molecule inhibitor. The commercial siRNAs were designed for target specificity to either the ERK1 (sc-29307) or ERK2 (sc-35335) isoforms (Santa Cruz Biotechnology, Inc.). The small molecule inhibitor, UO126 (1,4-diamino-2,3-dicyano-1,4-bis(2-aminophenylthio) butadiene), inhibits ERK signaling through its upstream effector, MEK, and ERK is the only known substrate for MEK. Assays performed were phenotypic assays. The effects of inhibiting ERK activity were measured by looking at functional properties of the cells associated with the MAPK signaling pathway, such as, cell proliferation and transformation. The MAPK signaling cascade in these experiments is initiated by transfection of the cells with a vector containing a constitutively active proto-oncogene, either H-RasV12 or v-Src, which eventually causes the cells to acquire enhanced growth rate (colony formation) and cell transformation rate (foci formation). Inhibition of ERK activity in this cascade will result in reduced rates of proliferation or transformation as measured by numbers of G418-resitant colonies or foci.
Next, the effect of ERK inhibition on cell transformation was investigated using two means of initiating signaling cascades that lead to this biological property (FIG. 20). The first method is the constitutively active Ras mutant used herein above. The second is a constitutively active nonreceptor tyrosine kinase v-Src mutant (pp 60v-src) that also leads to cell transformation, potentially by multiple signaling pathways including the Ras-Raf-MEK-ERK pathway. […] However, when transformation was initiated with v-Src, there was a difference in the inhibition specificity arising from use of SEQ ID NO:1 localized to the ER and PLA. […] That is, ER-localized SEQ ID NO:1 has a significant effect on transformation induced by H-RasV12 but little to no effect when transformation is induced by v-Src.

[4] = test system: ERK; assay: Localized inhibition of ERK-mediated myelin basic protein phosphorylation in Cos7 cells; type: cell-based
Excerpt: A constitutively-active form of the RasV12 protein, a known activator of MAPK signaling pathways, was used to activate ERK kinase in defined regions of Cos7 cells. Several fusion proteins as described by Matallanas et al. Mol Cell Biol. 2006 January; 26(1):100-116 (hereby incorporated by reference), were used to activate ERK kinase in specific subcellular compartments. The constitutively-active RasV12 protein promoted cell-wide activation of ERK. The Lck-RasV 12 fusion protein activated ERK-protein associated with lipid rafts in or near the plasma membrane. […] Lane 1: control. Lane 2: ERK activity in cells expressing active Lck-RasV12 fusion protein. Lane 3: ERK activity in cells co-expressing active Lck-RasV12 fusion protein, and ERK decoy protein (ER localization signal, a c-Myc epitope tag, and the ERK polyligand of SEQ ID NO:1). Lane 4: ERK activity in cells co-expressing active Lck-RasV12 fusion protein, and CAT fragment-containing ER localization control protein. Lane 5: ERK activity in cells expressing active M1-RasV12 fusion protein. Lane 6: ERK activity in cells co-expressing active M1-RasV12 fusion protein, and ERK decoy protein. Lane 7: ERK activity in cells co-expressing active M1-RasV12 fusion protein, and CAT fragment-containing ER localization control protein. […]
The localized ERK ligands were detected by immunostaining for the c-myc epitope tag.

[5] = pancellular polyligand, vector 1 μg, colonies counted after 15 days, FIG. 18
[6] = SEQ ID NO:1 fused to localization signals, constructs 1 μg each, 15 days, FIG. 19

Q: Which “Potency for MEK” value [1] does the source give for `N#CC(=C(N)Sc1ccccc1N)C(C#N)=C(N)Sc1ccccc1N` [UO126, 1,4-diamino-2,3-dicyano-1,4-bis(2-aminophenylthio) butadiene, reference compound] here?
A: Its value is about 70 nM.

Q: And the “Inhibition of colony formation” value ([2]; UO126 1 μM, colonies counted after 15 days, FIG. 18)?
A: The value was “very effective”.

B1: SEQ ID NO:1: ERK heteropolyligand A-S1-B-S2-C-S3-D-S4-E-S5-F of SEQ ID NOS:91, 97, 28, 29, 30, 31, Xaa alanine, with spacers (protein)
chain: MPKKKPTPIQLNPAAKGRKPRDLELPAAAATGPLAPGPFGAGAYSPTAPTYSPTAPKKKGGGGAPRAPGGRRAGAGRRPRAPAKLSFFFPS
modifications: Synthetic polyligand
Q: With B1 as the molecule, how does the “Inhibition of cell transformation rates” value [3] read?
A: The value was about 50%.

Q: What about the “Inhibition of cell transformation (foci formation)” value [3] of the same molecule?
A: Its value is “inhibited cell transformation”.

Q: And the “Inhibition of cell proliferation (G418-resistant colony formation)” value (shortened to “Inhibition of cell proliferation”) [2, 5]?
A: The value was “partial inhibition”.

Q: What about the “ERK activity in the endoplasmic reticulum reduced (MBP phosphorylation)” value ([4]; Cos7 cells with ER-active ERK (M1-RasV12), SEQ ID NO:1 co-expressed as fusion with ER localization signal and c-Myc tag) of the same molecule?
A: The value was “approximately 60%”.

Q: And the “Inhibition of ERK activity as measured by phosphorylation of myelin basic protein (MBP)” value ([4]; ERK activated at plasma membrane, ER or cell wide by localized Ras overexpression)?
A: The value was “location-selective inhibition of ERK activity at the endoplasmic reticulum”.

B2: NLS: SEQ ID NO:1 fused to a nuclear localization signal and c-Myc epitope tag (protein)
chain: MPKKKPTPIQLNPAAKGRKPRDLELPAAAATGPLAPGPFGAGAYSPTAPTYSPTAPKKKGGGGAPRAPGGRRAGAGRRPRAPAKLSFFFPS
modifications: left off: small tags and cut ends
Q: With B2 as the molecule, how does the “Inhibition of cell proliferation” value [2, 6] read?
A: The value was “slight inhibition”.

B3: PLA-localized SEQ ID NO:1: SEQ ID NO:1 targeted to the plasma membrane (protein)
chain: MPKKKPTPIQLNPAAKGRKPRDLELPAAAATGPLAPGPFGAGAYSPTAPTYSPTAPKKKGGGGAPRAPGGRRAGAGRRPRAPAKLSFFFPS
modifications: left off: small tags and cut ends
Q: With B3 as the molecule, how does the “Inhibition of cell transformation rates” value [3] read?
A: The value was about 50%.

Q: And the Decrease in transformation ([3]; transformation initiated with v-Src)?
A: Its Decrease in transformation is about 60%.

Q: And the “Inhibition of cell proliferation” value [2, 6]?
A: Its value is “greatest degree of inhibition”.

B4: NXP: SEQ ID NO:1 fused to a nuclear-exclusion localization signal and c-Myc epitope tag (protein)
chain: MPKKKPTPIQLNPAAKGRKPRDLELPAAAATGPLAPGPFGAGAYSPTAPTYSPTAPKKKGGGGAPRAPGGRRAGAGRRPRAPAKLSFFFPS
modifications: left off: small tags and cut ends
Q: For B4, which “Inhibition of cell proliferation” value [2, 6] is on record?
A: Its value is “slight inhibition”.

B5: SEQ ID NO:5: ERK heteropolyligand of SEQ ID NOS:32, 98, 33, 34, 35, 100, 36, 37, 107, Xaa alanine, with spacers (protein)
chain: PPLMAPPFYPQKGRKPRDLELPLAAAAKQAEAVTAPRGAGAKNIVTPRAPPPSQGKGGGGTLSPIAPRAPAKLSFQFPSSAGPGAEFLKPIESSILAQRRVRKLPSTAGAGKRELVEPLAPSGEAPNQALLRAAGGYSPTAPTYSPTAPKKKGGAATPTAAHSGSHLFGFP
modifications: Synthetic polyligand
Q: For B5, which “Inhibition of cell transformation rates” value [3] is on record?
A: The value was about 50%.

Q: What about the “Inhibition of cell transformation (foci formation)” value [3] of the same molecule?
A: The value was “inhibited cell transformation”.

Q: And the “Inhibition of cell proliferation” value [2, 5]?
A: Its value is “partial inhibition”.

Reference: patent publication US8283445B2, “Extracellular-signal-regulated-kinase (ERK) heteropolyligand polypeptide” (Intrexon Corporation, priority 2006, dated 2012)
